The nature of the series: soluble on expression in E. coli; label from the status in PepcDB or PDB records.
On to “MSLNQASLERNELHNTIWKVANELRGSVDGWDFKQYVLGILFYRYISENMTHYINKEERKRDPSFDYAKLSDEKAERGRKHLIEQKGFFIPPSALFCNALKNACHNEDLNVTLQNIFNEIEKSSLGTPSEENVKGLFADLDVNSNKLGSSHQNRVEKLTKILEAIGGMQLGDYLKSGIDVFGDAYEYLMAMYASNAGKSGGEFFTPQEVSELLAKITLHGQESVNKVYDPCCGSGSLLLQFSKVLGDKNVSKGYFGQEINLTTYNLCRINMFLHDINYSKFHIAHGDTLLDPKHEDDEPFDAIVSNPPYSTKWVGDSNPILINDERFSPAGVLAPKNAADLAFTMHMLSYLSNSGTAAIVEFPGVLYRGNAEAKIREYLVKENVIDCVIALPDNLFFGTSIATCILVLKKNKQDDTTLFIDASKEFVKEGKKNKLKERNREKILQTYIERKEIKHFCALANIEKIKENDYNLSVNRYVEQEDTKEAIDIKALNSEIAQIVEKQSALRNRLESIIKELEGGQNEGHHHHHH”, for which the “soluble on expression in E. coli” value is reported as “soluble”.
With “MSLNQIYQLTKPKFINVKYQEEAIDQENHILIRPNYMAVCHADQRYYQGKRDPKILNKKLPMAMIHESCGTVISDPTGTYEVGQKVVMIPNQSPMQSDEEFYENYMTGTHFLSSGFDGFMREFVSLPKDRVVAYDAIEDTVAAITEFVSVGMHAMNRLLTLAHSKRERIAVIGDGSLAFVVANIINYTLPEAEIVVIGRHWEKLELFSFAKECYITDNIPEDLAFDHAFECCGGDGTGPAINDLIRYIRPQGTILMMGVSEYKVNLNTRDALEKGLILVGSSRSGRIDFENAIQMMEVKKFANRLKNILYLEEPVREIKDIHRVFATDLNTAFKTVFKWEEGHHHHHH”, the “soluble on expression in E. coli” value is “soluble”.
For “MSLNRLSIPYSNKSLDYYFFVIQEASVKRAVLARSGEFQATNANFDNTRQLEQWQSLLLSRPSAIISDPIDSQAIVSAIRRYNREKIPVGIIDTPADGGDVAITVSFDNFQGGVMAAEEIVNRLITRYGRPKGTVLNCYGALASVAWRLRKEGMDSVFAKYPGITYLARPTDGQLEKMLSVTLSTLSEYPDLDAVHAPSDSPSRGIVTALQQKGRWKKIGEAGHVIFVNIDGEPIALKWIQDGYMDACISQDPVAYGEIAVDMIVKHALKGEAVPLGTYQDKKYFWESGEGHHHHHH”, the “soluble on expression in E. coli” value is given as “not soluble”.
As to “MSLNSKDIAKIVGVSRSTVSRVINNYPDIPQATREKVLKAIKEYNYYPNASARRLAGMKSSTLGIFIIDIKDNEKPHHVIENNEDLLYGNSYFSPFINAFIDQSNKAQYHVLVSTIYSSDELWKIQSAFYEKRIDGAVIIGSSSIDYSKIFEIMDKDSITVAVDLDMEKENTGTVMSVNINNYGGVSDAIDYLVELGHKDIAVITGDLNKLSGKIRFESFKDALLRHGLPLNNDFIAYGDFTENSGYEGMKKILASGKKPTAVFTSNDTMAIGAYRAIKEYGLKIPEDISVMGFDNSYISQYMSPPLTTVNVSLPEIAKCSIELLLDSINNKEIKNRQKTVNVQIVKRNSCKKEGHHHHHH”, the “soluble on expression in E. coli” value was “soluble”.
On to “MSLNTENIRIIALGGVGEIGKNLYVIEIDSDIFVVDAGLMHPENEMLGIDVVIPDISYLIERSDRVKAIFLTHGHEENIGGVFYCLNKLSVPVYGTKLTLALLKETLKQYGVNKKPDLREIHSKSVITFESTKVSFFKTNHSIPDSVGVSFKTSLGSIVCTGDFKFDQTPVLNQTSDIGEIAKIGNSGVLCLLSDSANAEKPGYTPSEALVGGEISDVMYNAENRVIIAVFASNFNRIQQVIDAALQNGRKLAVSGKNISAILQLAMKLGYVTADEDMFIPVQEVKKYPKREVAILTGDNHGEPLAALTRIAKQGHKQLDIEEGDTVLIASSPIPGQELVYSKAVDLLTRAGAQVVFAQKRVHVSGHGCQEELKLMLNLLKPKYLIPVNGEYRMQKAHSKLAEEIGMKRSDIFLIEKGDVVEFRGQNVKIGDKVHSGNILIDGLGVGDIGNIVLRDRRLLSQDGILIVVITLDKKKKHLVSGPEIITRGFVYVRESEQLIVEATELVRELVNESTENAVVEWSALKQTMREALNQFLYEKTKRKPMIIPIIMEEGHHHHHH”, for which the “soluble on expression in E. coli” value was “soluble”.
As to “MSLNTKLLILDDDIDILQMLKTVFIGEEMDIILESESEQALRFITTERPNVAIVDINLPRKSGLQVLQEAKKIDPGLSVIMTTGNKTTQNAIEAMKYGAYDYVTKPFDMNKLKSAVHKALECNLLSRKVRYTKDTKQLSEDEGHHHHHH”, the “soluble on expression in E. coli” value is reported as “not soluble”.
Then “MSLNTQDFLAGYTKRFVDNKEEDMSLDEYLELCKTDPTAYANPAERLLMAIGEPELIDTRHDPVLSRIFSNKIIHHYEVFKDFYGMEEPIEQIVGFLKHAAQGLEETKQVLYLLGPVGGGKSSIAEKLKDLMERIPFYAIKGSPVFESPLSLFNPLEDGELLRERFGIPTRYLRYLMSPWAVKRLQEYNGDISKFRVIKVKPSRLKQIAIAKTEPGDENNQDISSLVGKVDIRKLEEFSQDDPDAYSYSGGLCRANRGLLEFVEMFKAPIKVLHPLLTATQEGNYNATEGLSAIPFEGIILAHSNESEWQSFRNNEGHHHHHH”, with “not soluble”; and “MSLNTWNELTVHVNREAEEAVSNLLIETGSQGVAISDSADYLGQEDRFGELYPEVEQSDMIAITAYYPDTLDIEAVKADLADRLANFEGFGLATGSVNLDSQELVEEDWADNWKKYYEPARITHDLTIVPSWTDYEAKAGEKIIKMDPGMAFGTGTHPTTKMSLFALEQVLRGGETVIDVGTGSGVLSIASSLLGAKDIYAYDLDDVAVRVAQENIDMNPGTENIHVAAGDLLKGVQQEVDVIVANILADILIHLTDDAYRLVKDEGYLIMSGIISEKWDMVRESAEKAGFFLETHMVQGEWNACVFKKTDDISGVIGGEGHHHHHH”, with “soluble”; and “MSLNVKIAALASHSALDVFDGAKDEGFQTIGLCKKGRERPYLEFKAIMDKCIILEDFKEIISDKVQSILLSENAIIVPNRSLAVYVGYDGIEKMKTKVFGNRYMLRWEERIGEKNYYKILNEAKISIPKLFKPEEIDRPVIVKLPEAKRKVERGFFFAVNKEDFEAKLNELLRNNVIDNEGLKNMVIEEFVFGAHFNLNYFYSPIFNRLELISVDRRIQSDWDSLYRLPADIQIKLGRIPKLIEVGHEPVTIRESLLEKVFEIGYRFVDATQKLEPPGIIGPFTLQVMVTPDLDLVVYDVAPRIGGGTNVYMGTGSQYSKFYFGKPISLGRRIALEIKHAIINNLTEKILTEGHHHHHH”, with “soluble”.
Turning to “MSLNVRIYCRASTEGQHADRALTSLREFSKSKGWQIAGEYIENASGAKLERVELMRLLSEAQSGDLLLVEAIDRLSRLEHSAWVELKDTLNRKGLIIVSMDLPTSWQMVEMAGNDLTSGILRAVNAMLIDILATMARQDYETRRKRQQQGIERAKSEGIYIGRAKNQEAREIVREMLEQGVKPELIMKAAGISRATYYRIKNELLIVKSEGHHHHHH”, the “soluble on expression in E. coli” value is on record as “soluble”.
As for “MSLNYNAPHRHAVIELSQSAVVHNLKVIKENTHAKEIMAVLKANAFSHGLPEMASLSITAGATRFGMAMLDEALILRDLGYIQPIDVLGLTDPRYARLAAERNITLAFSTKESIKAAAEQLAGTGLTLKVSLPVDTGLNRIGFKSREDLVAAIQEVSAQDTLIFQSMWTHFATADTPNVDYVDFQISEWQRLTHDLPVEPNEKHFANTGIATWYPEKINTDIVRLGIGLFGINGSVPIMSMPFELIPALSLKAKVVNSKPLKKGDAVGYGAEYHAPNDGYLITIPIGHSDGYPFNGSGMRALVADGQIGHIVGGVAMDQSMILVTNPVAVGTTVTLIGRVGDQSITMQDLAEHTQSSIVALMNDFAPRLQRIIVSEGHHHHHH”, the “soluble on expression in E. coli” value is “not soluble”.
Turning to “MSLPDHSLFRLRILPWCIALAMSGSYSSVWAEDDIQFDSRFLELKGDTKIDLKRFSSQGYVEPGKYNLQVQLNKQPLAEEYDIYWYAGEDDVSKSYACLTPELVAQFGLKEDVAKNLQWSHDGKCLKPGQLEGVEIKADLSQSALVISLPQAYLEYTWPDWDPPSRWDDGISGIIADYSITAQTRHEENGGDDSNEISGNGTVGVNLGPWRMRADWQTNYQHTRSNDDDDEFGGDDTQKKWEWSRYYAWRALPSLKAKLALGEDYLNSDIFDGFNYVGGSVSTDDQMLPPNLRGYAPDISGVAHTTAKVTVSQMGRVIYETQVPAGPFRIQDLGDSVSGTLHIRIEEQNGQVQEYDISTASMPYLTRPGQVRYKIMMGRPQEWGHHVEGGFFSGAEASWGIANGWSLYGGALGDENYQSAALGVGRDLSTFGAVAFDVTHSHTKLDKDTAYGKGSLDGNSFRVSYSKDFDQLNSRVTFAGYRFSEENFMTMSEYLDASDSEMVRTGNDKEMYTATYNQNFRDAGVSVYLNYTRHTYWDREEQTNYNIMLSHYFNMGSIRNMSVSLTGYRYEYDNRADKGMEGHHHHHH”, the “soluble on expression in E. coli” value is “not soluble”.
With “MSLPGFEISAQFRFLLSVTALLVREEFGRAPSLGQTQSLLQNGFSSAVVEKVNQNLVSHLNVLDGLQPFMGRPRLHPEGPKDASRRIGPGDQEVKKLSPAMPSEQGEDYWNLLVEFPDSLSISEATLKIVTYHYFSMAGNNKFDGDKTRMGAPGIRFPGKGYAATEHIWIREGSSLLRSLLTSLPTSWVKGEGLPAWADRTAQKSRTGQQQFHALWEATWSSNTVVSYWEDGYLTGVRVGGIPPAWWPDIPNTKEGEKALKLWWDQRNEKDPLYFYLKNKKGEPKAQRIDFGRDGIDLAVEWAAEAKMMDLVEKTYKNVLPVDSYPTVDGDDEGIDKYQLVFFRHQVEGTASSPSIRASEVFLADRSVWAFDLSCDEQLRLRDNAQLVRDVYITLLGVFRRKSAADASREVATGWGAAVLDSLAVSQSDASDAYWRGVTDVYQKYLADLRVGEEITEELYRGIRSAALEAYDEVTAPYLAQYANEIYYVRASLVRSVNSKINTARDEGIGRIKEESNE”, the “soluble on expression in E. coli” value is “not soluble”.
Turning to “MSLPKIIPAIMAGGRGTRLWPLSRATAAKQFLKLIGEETLFQDTLKRVSDAKVYGAPLVITNEEFRFLVAEQARELGVTLSSIVLEPVPRNTAAAVAVAARIVADRFGEDALLLVLPSDHAITVDDTYKKCVRSACIAAAEGKLVTFGIQPTWPATGYGYIERGTYLGKDVHAVQCFVEKPSLEKAAALLETGNYYWNSGMFLFQAASIIAELEEHAPDVLSAVHAAVRGSTVDADFIRLAPESFSQAPSISIDYALMEKTANAAVVCSDFAWSDLGSWDAVWKNEEQNADGNVLKGNVTACNTKNSLVLSHTAHLAVQGMDGVAVIASEDAVFVGRLEEAHEIGNLVKRLAADENTARLTELHPTLIRPWGGYTTMLNGDRFQVRRLFVRPGKMLSLHKHFHRSEHWICVKGTAEVTIEDRVTILHENQSIYIPEGAIHRLGNPGKIMLELVEIQTGAYLGEDDIIRVADESRNEMPDSREGHHHHHH”, the “soluble on expression in E. coli” value is on record as “not soluble”.
Turning to “MSLQDESPLLIITDSALVRDALVTHISETRRLLIADSHDVGMELALSFRPALILLDASSTDGEALALLRAFRSEPHLDDTFILVLSDEAAVLERLEASRAGADDFLRLPVDQAELTARVAVALRQARLSRRLRAYTRRIEEEMRLVADLQMRLLPAYTPYLASLRIDSFYQPSTEASGDYFDHFLLPGEDRLRVVIADASGHGARSAVLMTMVRTLFHASHAANTPLTDMLLEINTNLLDVVGNEPDFVTLFAADLDLRGNTLRYVNAGHCPALLRHPDGTTMRLSGTTPRLGFFGVRETERLVPFTPGTRLLLYTDGFHDCATASGRRLGIDRFLSLAEATMRRGGDVLSSLREDISTTFGEPPTWPDDVTALYIERKEEGHHHHHH”, the “soluble on expression in E. coli” value was “soluble”.
For the sequence “MSLQEKQLKTIQNKIASWIKEIESAFIDELFSKIGPSKMLRSKLMLALLNEKTDAILLDKAFNLCAIVEMIQTASLLHDDVIDKAAMRRKLPSINALFGNFNAVMLGDVFYSKAFFELSKMGESIAKSLSNAVLRLSRGEIEDVFVGGSFNSDKQKYWRILEDKTAHFIEASLKSMAILLNKDAKMYADFGLNFGMAFQIIDDLLDITQDAKTLGKPNFSDFKEGKTTLPYLLLYEKLNQRDQGLLISYFKQDSHEIIEWTKEKFKQYGTIEETLKIAQVYSKKALEAIKGENNLILEKLAQDVIYRTFEGHHHHHH”, the “soluble on expression in E. coli” value was “soluble”.

These data come from the DeepSol protein solubility set.
